Measured values taken from US20240309072A1 (Regeneron, published 2024).
Like-named read-outs stand apart in the source and are kept apart here.

How the values were obtained:
Experiment in all cases: cell-based or functional assay
[1] = biological target: T1, SARS-COV-2 Spike, D614G (SARS-COV-2, UniProt P0DTC2 14-1273)
[2] = biological target: T2, SARS-COV-2 Spike, Omicron variant BA.1 (SARS-COV-2, UniProt P0DTC2 14-1273)
[3] = biological target: T3, SARS-COV-2 Spike, Omicron variant BA.2 (SARS-COV-2, UniProt P0DTC2 14-1273)
[4] = biological target: T4, SARS-COV-2 Spike, Omicron variant BA.4/BA.5 (SARS-COV-2, UniProt P0DTC2 14-1273)
[5] = biological target: SARS-COV-2 Spike, Omicron variant BA.2.75 (SARS-COV-2, UniProt P0DTC2 14-1273)
[6] = biological target: T2, SARS-COV-2 Spike, Omicron variant BA.1; remark: listed apart in the source
[7] = biological target: T3, SARS-COV-2 Spike, Omicron variant BA.2; remark: listed apart in the source
[8] = biological target: SARS-COV-2 Spike, Omicron variant BA.2.12.1 (SARS-COV-2, UniProt P0DTC2 14-1273)
[9] = biological target: T4, SARS-COV-2 Spike, Omicron variant …; remark: listed apart in the source
[10] = biological target: T1, SARS-COV-2 Spike, D614G; remark: listed apart in the source
[11] = biological target: T1, SARS-COV-2 Spike, D614G; remark: listed apart in the source

| Binder | Fold Change over R10933 + R10987 against D614G [1] [fold] | pseudovirus neutralization IC50 [1] [nM] | Fold Change over R10933 + R10987 against D614G [2] [fold] | pseudovirus neutralization IC50 [2] [nM] | Fold Change over R10933 + R10987 against D614G [3] [fold] | pseudovirus neutralization IC50 [3] [nM] | Fold Change over R10933 + R10987 against D614G [4] [fold] | pseudovirus neutralization IC50 [4] [nM] | Fold Change over R10933 + R10987 against D614G [5] [fold] | pseudovirus neutralization IC50 [5] [nM] | Fold change over R10987 against D614G [7] [fold] | pseudovirus neutralization IC50 [7] [nM] | Fold change over R10987 against D614G [8] [fold] | pseudovirus neutralization IC50 [8] [nM] | Fold change over R10987 against D614G [9] [fold] | pseudovirus neutralization IC50 [9] [nM] | further results |
| --- | --- | --- | --- | --- | --- | --- | --- | --- | --- | --- | --- | --- | --- | --- | --- | --- | --- |
| REGN14256 (antibody, V domains shown) VH: QVQLQESGPGLVKPSETLSLTCTVSGGSISSHYWSWIRQPPGKGLEWIGYIYYSGSSNYNPSLKSRVTISVDTSKNQFSLKLNSVTAADTAVYYCARHYDILTGFDWFDPWGQGTLVTVSS VL: QSVLTQPPSVSGAPGQRVTISCTGSSSNIGTHYDVHWYQQLPGTAPKLLIYGNSNRPSGVPDRFSGSKSGTSASLAITGLQAEDEADYYCQSFDNSLTAPYVFGTGTKVTVL | 0.77 | 0.0114 | – | – | – | – | – | – | – | – | – | – | – | – | – | – | – |
| REGN14287 (antibody, V domains shown) VH: QVQLVQSGAEVKKPGSSVKVSCKASGGTFSNNAISWVRQAPGQGLEWMGKIIPILGIGGDAQKFQGRFTITADKSTSTAYMELSSLRSEDTAVYYCANSGDSRPHAFDIWGQGTMVTVSS VL: QSALTQPASVSGSPGQSITISCTGTSSDVGSYNLVSWYQQHPGKAPKLMIYEVSKRPSGVSNRFSGSKSGNTASLTISGLQAEDEADYYCSSYAGSRREVFGGGTKLTVL | 6.18 | 0.0906 | 3.28 | 0.0481 | 1.94 | 0.0284 | 3.41 | 0.05 | 3.94 | 0.0578 | – | – | – | – | – | – | – |
| REGN14315 (antibody, V domains shown) VH: QVQLVQSGAEVKKPGSSVKVSCKASGDTFSTYAINWVRQAPGQGLEWMGRFIHIFGTANYAQKFQGRVTITADESTSTAYMELRSLRSEDTAVYYCARDGVDYGDYRPDYWGQGTLVTVSS VL: EIVLTQSPGTLSLSPGERATLSCRASQSVSSNYLAWYQQKPGQAPRLLIYGASSRATGIPERFSGSGSGTDFTLTISRLEPEDFAVYYCQQYGSSLYTFGQGTKLEIK | 0.6 | 0.00878 | 2.76 | 0.0404 | 11.5 | 0.168 | 10.8 | 0.159 | 87 | 1.28 | 6.78 | 0.0359 | 12.7 | 0.0673 | 9.38 | 0.0497 | Fold change over R10987 against D614G [6]: 1.03 fold; pseudovirus neutralization IC50 [6]: 0.00547 nM; Fold change over R10987 against D614G [10]: 0.22 fold; pseudovirus neutralization IC50 [10]: 0.00115 nM |
| REGN14315 + REGN10987 (other) VH 1: QVQLVQSGAEVKKPGSSVKVSCKASGDTFSTYAINWVRQAPGQGLEWMGRFIHIFGTANYAQKFQGRVTITADESTSTAYMELRSLRSEDTAVYYCARDGVDYGDYRPDYWGQGTLVTVSS VL 1: EIVLTQSPGTLSLSPGERATLSCRASQSVSSNYLAWYQQKPGQAPRLLIYGASSRATGIPERFSGSGSGTDFTLTISRLEPEDFAVYYCQQYGSSLYTFGQGTKLEIK VH 2: QVQLVESGGGVVQPGRSLRLSCAASGFTFSNYAMYWVRQAPGKGLEWVAVISYDGSNKYYADSVKGRFTISRDNSKNTLYLQMNSLRTEDTAVYYCASGSDYGDYLLVYWGQGTLVTVSS VL 2: QSALTQPASVSGSPGQSITISCTGTSSDVGGYNYVSWYQQHPGKAPKLMIYDVSKRPSGVSNRFSGSKSGNTASLTISGLQSEDEADYYCNSLTSISTWVFGGGTKLTVL | – | – | – | – | – | – | – | – | – | – | 13.2 | 0.0699 | 21 | 0.111 | 20.7 | 0.11 | Fold change over R10987 against D614G [6]: 3.18 fold; pseudovirus neutralization IC50 [6]: 0.0169 nM; Fold change over R10987 against D614G [10]: 0.7 fold; pseudovirus neutralization IC50 [10]: 0.00368 nM |
| REGN14287 + REGN14315 (other) VH 1: QVQLVQSGAEVKKPGSSVKVSCKASGGTFSNNAISWVRQAPGQGLEWMGKIIPILGIGGDAQKFQGRFTITADKSTSTAYMELSSLRSEDTAVYYCANSGDSRPHAFDIWGQGTMVTVSS VL 1: QSALTQPASVSGSPGQSITISCTGTSSDVGSYNLVSWYQQHPGKAPKLMIYEVSKRPSGVSNRFSGSKSGNTASLTISGLQAEDEADYYCSSYAGSRREVFGGGTKLTVL VH 2: QVQLVQSGAEVKKPGSSVKVSCKASGDTFSTYAINWVRQAPGQGLEWMGRFIHIFGTANYAQKFQGRVTITADESTSTAYMELRSLRSEDTAVYYCARDGVDYGDYRPDYWGQGTLVTVSS VL 2: EIVLTQSPGTLSLSPGERATLSCRASQSVSSNYLAWYQQKPGQAPRLLIYGASSRATGIPERFSGSGSGTDFTLTISRLEPEDFAVYYCQQYGSSLYTFGQGTKLEIK | 0.76 | 0.0111 | 6.11 | 0.0896 | 9.75 | 0.143 | 14.9 | 0.219 | 20.5 | 0.3 | – | – | – | – | – | – | – |
| REGN10933 + REGN10987 (other) VH 1: QVQLVESGGGLVKPGGSLRLSCAASGFTFSDYYMSWIRQAPGKGLEWVSYITYSGSTIYYADSVKGRFTISRDNAKSSLYLQMNSLRAEDTAVYYCARDRGTTMVPFDYWGQGTLVTVSS VL 1: DIQMTQSPSSLSASVGDRVTITCQASQDITNYLNWYQQKPGKAPKLLIYAASNLETGVPSRFSGSGSGTDFTFTISGLQPEDIATYYCQQYDNLPLTFGGGTKVEIK VH 2: QVQLVESGGGVVQPGRSLRLSCAASGFTFSNYAMYWVRQAPGKGLEWVAVISYDGSNKYYADSVKGRFTISRDNSKNTLYLQMNSLRTEDTAVYYCASGSDYGDYLLVYWGQGTLVTVSS VL 2: QSALTQPASVSGSPGQSITISCTGTSSDVGGYNYVSWYQQHPGKAPKLMIYDVSKRPSGVSNRFSGSKSGNTASLTISGLQSEDEADYYCNSLTSISTWVFGGGTKLTVL | 1 | 0.0147 | – | – | 326 | 4.77 | 230 | 3.37 | – | – | – | – | – | – | – | – | pseudovirus neutralization IC50 [11]: 0.012 nM |
| REGN10987 (antibody, V domains shown) VH: QVQLVESGGGVVQPGRSLRLSCAASGFTFSNYAMYWVRQAPGKGLEWVAVISYDGSNKYYADSVKGRFTISRDNSKNTLYLQMNSLRTEDTAVYYCASGSDYGDYLLVYWGQGTLVTVSS VL: QSALTQPASVSGSPGQSITISCTGTSSDVGGYNYVSWYQQHPGKAPKLMIYDVSKRPSGVSNRFSGSKSGNTASLTISGLQSEDEADYYCNSLTSISTWVFGGGTKLTVL | 0.89 | 0.0131 | – | – | 149 | 2.18 | 236 | 3.46 | – | – | 199 | 1.06 | 279 | 1.48 | 176 | 0.933 | – |
| REGN10933 (antibody, V domains shown) VH: QVQLVESGGGLVKPGGSLRLSCAASGFTFSDYYMSWIRQAPGKGLEWVSYITYSGSTIYYADSVKGRFTISRDNAKSSLYLQMNSLRAEDTAVYYCARDRGTTMVPFDYWGQGTLVTVSS VL: DIQMTQSPSSLSASVGDRVTITCQASQDITNYLNWYQQKPGKAPKLLIYAASNLETGVPSRFSGSGSGTDFTFTISGLQPEDIATYYCQQYDNLPLTFGGGTKVEIK | 1.98 | 0.0291 | – | – | – | – | – | – | 148 | 2.17 | – | – | – | – | – | – | – |
